Starred links: 1 amine or outer side, 2 acyl side, 3 side chain; linkers in the order of their positions; H or OH if unused. Positions of bridges follow the written chain, without caps; N, C: chain ends. Non-standard residues stand in square brackets, D forms with d. Groups on a side chain read outwards from the residue. Primed or numbered codes have the meaning given here. No end group written: not given here. *: point of attachment. Af3(2Py6SaNH) = 3-amino-L-phenylalanine, ring amine acylated by 6-(sulfamoylamino)pyridine-2-carboxylic acid, NS(=O)(=O)Nc1cccc(C(=O)Nc2cccc(C[C@H](N[*:1])C(=O)[*:2])c2)n1; Af3(TzPr) = 3-amino-L-phenylalanine acylated on the ring amine with 3-(1H-1,2,4-triazol-3-yl)propanoic acid, O=C(CCc1nc[nH]n1)Nc1cccc(C[C@H](N[*:1])C(=O)[*:2])c1; Af3(Ac-Glu) = 3-aminophenylalanine acylated on the ring amine with N-acetyl-glutamic acid, CC(=O)N[C@@H](CCC(=O)[*:3])C(=O)Nc1cccc(C[C@H](N[*:1])C(=O)[*:2])c1; Af3(HO-Succinyl) = 3-aminophenylalanine with succinyl (free acid) on the ring amine, O=C(CCC(=O)[*:3])Nc1cccc(C[C@H](N[*:1])C(=O)[*:2])c1; Eem = S-benzyl-cysteine-sulfone, O=C([C@H](CS(=O)(=O)Cc1ccccc1)N[*:1])[*:2]; APAc″ = 2-(4-(amino)piperidin-1-yl)acetic acid, NC1CCN(CC(=O)*)CC1; DOTA = O=C(O)CN1CCN(CC(=O)O)CCN(CC(=O)*)CCN(CC(=O)O)CC1; PPAc = 4-carboxymethyl piperazine linker; mXylylene = c1cc(C[*:1])cc(C[*:2])c1; tBuAla = CC(C)(C)C[C@H](N)C(=O)O; NMeD = CN[C@@H](CC(=O)O)C(=O)O; AGLU′ = not defined here; APAc = not defined here; Apr = not defined here; Dap = NC[C@H](N)C(=O)O; AEEA = NCCOCCOCC(=O)O; Ttds″ = Ttds spacer
B1: 3BP-3279 (peptide)
peptide: {DOTA-Ttds″}-VYCE[dA]DWLTWAC-NH2
modifications: linker 3-12 via mXylylene; not fully specified
B2: 3BP-3280 (peptide)
peptide: Ac-VYCE[dA]DWLTWAC-NH2
modifications: linker 3-12 via mXylylene
SMILES: CC(=O)N[C@H](C(=O)N[C@@H](Cc1ccc(O)cc1)C(=O)N[C@H]1CSCc2cccc(c2)CSC[C@@H](C(N)=O)NC(=O)[C@H](C)NC(=O)[C@H](Cc2c[nH]c3ccccc23)NC(=O)[C@H]([C@@H](C)O)NC(=O)[C@H](CC(C)C)NC(=O)[C@H](Cc2c[nH]c3ccccc23)NC(=O)[C@H](CC(=O)O)NC(=O)[C@@H](C)NC(=O)[C@H](CCC(=O)O)NC1=O)C(C)C
B3: 3BP-3328 (peptide)
peptide: VYCEGDWLTWQC-NH2
modifications: linker 3-12 via mXylylene; not fully specified (N-terminus); also: indium complexed by DOTA
B4: 3BP-3599 (peptide)
peptide: {DOTA-APAc}-VYCE[dP]DWLTWRC-NH2
modifications: linker 3-12 via mXylylene; reading uncertain
B5: 3BP-3732 (peptide)
peptide: Ac-SYCE[dP]DWLTWE([Apr-AEEA-DOTA])C-NH2
modifications: linker 3-12 via 3MeBn; reading uncertain
B6: 3BP-3734 (peptide)
peptide: Ac-VRCE[dP]DWLTWE([Apr-AEEA-DOTA])C-NH2
modifications: linker 3-12 via 3MeBn; reading uncertain
B7: 3BP-3873 (peptide)
peptide: Ac-SYCE[dP]DWLTWE([Apr-DOTA])C-NH2
modifications: linker 3-12 via mXylylene; reading uncertain
B8: 3BP-3874 (peptide)
peptide: Ac-VFCE[dP]DWLTWE([Apr-DOTA])C-NH2
modifications: linker 3-12 via mXylylene; reading uncertain
B9: 3BP-4104 (peptide)
peptide: {DOTA-APAc}-VYCQ[dP]DWLTWSC-NH2
modifications: linker 3-12 via mXylylene; reading uncertain
B10: 3BP-4105 (peptide)
peptide: {DOTA-APAc}-VSCE[dP]DWLTWSC-NH2
modifications: linker 3-12 via mXylylene; reading uncertain
B11: 3BP-4112 (peptide)
peptide: {DOTA-APAc}-VE(AGLU′)CE[dP]DWLTWSC-NH2
modifications: linker 3-12 via mXylylene; reading uncertain
B12: 3BP-4119 (peptide)
peptide: {DOTA-APAc}-VYCE[dE](AGLU′)DWLTWSC-NH2
modifications: linker 3-12 via mXylylene; reading uncertain
B13: 3BP-4107 (peptide)
peptide: {DOTA-APAc}-VYCE[dP][NMeD]WLTWSC-NH2
modifications: linker 3-12 via mXylylene; reading uncertain
B14: 3BP-4123 (peptide)
peptide: {DOTA-APAc}-VYCE[dP][Eem]WLTWSC-NH2
modifications: linker 3-12 via mXylylene; not fully specified; reading uncertain
B15: 3BP-4142 (peptide)
peptide: {DOTA-APAc″}-VYCE[dP]DW[tBuAla]TWSC-NH2
modifications: linker 3-12 via mXylylene
B16: 3BP-4175 (peptide)
peptide: {DOTA-APAc″}-VECE[dP]DWLTW[Dap]C-NH2
modifications: lactam 2-11; linker 3-12 via mXylylene
B17: 3BP-4237 (peptide)
peptide: {DOTA-APAc″}-VYCE[dP]D[Af3(HO-Succinyl)]LTWSC-NH2
modifications: linker 3-12 via mXylylene
B18: 3BP-4264 (peptide)
peptide: {DOTA}-VDCE[dP]DWLTW[Dap]C-NH2
modifications: lactam 2-11; linker 3-12 via mXylylene
SMILES: CC(C)C[C@@H]1NC(=O)[C@H](Cc2c[nH]c3ccccc23)NC(=O)[C@H](CC(=O)O)NC(=O)[C@H]2CCCN2C(=O)[C@H](CCC(=O)O)NC(=O)[C@@H]2CSCc3cccc(c3)CSC[C@@H](C(N)=O)NC(=O)[C@H](CNC(=O)C[C@H](NC(=O)[C@@H](NC(=O)CN3CCN(CC(=O)O)CCN(CC(=O)O)CCN(CC(=O)O)CC3)C(C)C)C(=O)N2)NC(=O)[C@H](Cc2c[nH]c3ccccc23)NC(=O)[C@H]([C@@H](C)O)NC1=O
B19: 3BP-4324 (peptide)
peptide: {DOTA-APAc″}-VYCE[dP]D[Af3(TzPr)]LTWSC-NH2
modifications: linker 3-12 via mXylylene
B20: 3BP-4337 (peptide)
peptide: VDCE[dP]DWLTW[Dap]C-NH2
modifications: lactam 2-11; linker 3-12 via mXylylene; not fully specified (N-terminus); also: indium complexed by DOTA
B21: 3BP-4361 (peptide)
peptide: {DOTA-APAc″}-VYCE[dP]D[Af3(Ac-Glu)]LTWSC-NH2
modifications: linker 3-12 via mXylylene
B22: 3BP-4514 (peptide)
peptide: {DOTA-PPAc}-QCE[dP]D[Af3(2Py6SaNH)]LTWSC-NH2
modifications: linker 2-11 via mXylylene

Molecular target: T1, Fc-fusion protein of human carbonic anhydrase IX (human, UniProt Q16790 38-414)
Test: SPR, captured hCAIX-Fc; pKD category A: >8.0
Protocol: (§1) Stock solutions of test compounds were prepared by dissolving each compound in DMSO. DMSO stock solution were diluted 1:1000 in Running Buffer without DMSO. […] SPR binding analyses were performed in Single Cycle Kinetic (SCK) mode at 25° C.
(§2) For each test compound, SPR raw data in the form of resonance units (RU) were plotted as sensorgrams using the Biacore™ T200 control software. The signal from the blank sensorgram was subtracted from that of the test compound sensorgram (blank corrected). The blank corrected sensorgram was corrected for baseline drift by subtracting the sensorgram of a SCK run without the test compound (running buffer only). […] Raw data and fit results were imported as text files in IDBS. The pKD value (negative decadic logarithm of dissociation constant) was calculated in the IDBS excel template.

pKD, > 8 pkd:
B1
B2
B3
B4
B5
B6
B7
B8
B9
B10
B11
B12
B13
B14
B15
B16
B17
B18
B19
B20
B21

Molecular target: T1, Fc-fusion protein of human carbonic …
Test: SPR, captured hCAIX-Fc; t1/2 category A: >15.0 min
Protocol: as §1, §2

t1/2 (half-life of the complex, SPR), > 15 min:
B13
B14
B15
B16
B17
B18
B19
B20
B21

Molecular target: T1, Fc-fusion protein of human carbonic …
Test: SPR, captured hCAIX-Fc; t1/2 category B: 5.1-15.0 min
Protocol: as §1, §2

t1/2 (half-life of the complex, SPR), 5.1 to 15 min:
B1
B2
B3
B4
B5
B6
B7
B8
B9
B10
B11
B12
B22

— patent US20250339569A1 (3B PHARMACEUTICALS, published 2025)
